Patent US20130165328, “APPARATUS AND METHODS FOR KINETIC ANALYSIS AND DETERMINATION OF NUCLEIC ACID SEQUENCES” (ILLUMINA, INC., published 2013)

B1: 19/36 mer primer/template duplex (FAM-labelled) (dsDNA)
DNA 1: GCTTGCACAGGGCCTCGAC
DNA 2: CGTTAGTAAGGTCGAGGCCCTGTGCAAGC

Assays:
KlenTaq polymerase = KlenTaq polymerase (UniProt P19821 P19821:280-832); assay: stopped-flow observed k1; 600 nM enzyme, 100 uM dGTP, 50 mM NaCl, 2 mM MgCl2, pH 7.5; conditions: label: 6-FAM on internal T; hairpin
Description: The pre-steady kinetic analysis of Klenow or KlenTaq polymerase for incorporating the cognate nucleotide (dGTP) was monitored following the mixing of 6-carboxyfluorescein (6-FAM) dye label hairpin-DNA template with the enzyme (600 nM) and nucleotide (100 μM) in a reaction buffer containing 50 mM Tris-HCl, pH 7.5, 300 mM NaCl (or 50 mM NaCl in the KlenTaq reaction), 0.5 mM Dithiothreitol and 5 mM MgCl₂ (or 2 mM MgCl₂ in the KlentTaq reaction) in an Applied Photophysics SX20 stopped-flow spectrometer. The 6-FAM hairpin-DNA template was: 5′-[…].[…](6-FAM) CGAG-3′ (SEQ ID NO: 5).

BSU DNA polymerase I = BSU DNA polymerase I (Bacillus subtilis, UniProt O34996 O34996:1-880, second Ser after 6xHis tag replaced by Cys (in tag)); assay: stopped-flow fluorescein quenching; correct dCTP signal rises and mismatch dATP signal falls with NaCl 62.5-375 mM; 10 mM MgSO4; conditions: label: fluorescein-dT in primer, 5 bases from incorporation site; primer/template with 5' template overhang
Text: Theoretically, it was possible to use an enzyme simulation that predicts the feasibility of correct vs. mismatch base discrimination using enzyme-DNA binding kinetics. […] Rapid mixing is generally achieved using a fast delivery and mixing system to minimize the contribution of the diffusion constants to the overall access of the polymerase to the DNA templates. To determine the validity of the theoretical predictions for base discrimination based on DNA binding kinetics, correct (dCTP) and mismatch (dATP) nucleotides were rapidly mixed with BSU polymerase and FAM labeled 19/36 mer in the presence of various NaCl concentrations with a stopped flow instrument. Pre-steady state correct and mismatch nucleotide kinetic responses of polymerase/DNA binding were made by monitoring the extent of induced fluorescence quenching response. Correct and mismatch nucleotide responses were determined from the stopped flow kinetic raw traces (FIG. 23). The traces were normalized and the maximum fluorescence change was determined and subsequently, correlated with the extent of synchronized enzyme-DNA binding. As [NaCl] was increased and the nucleotide concentration was held constant, the fluorescence change for the correct nucleotide (leftmost bar in each pair of bars in FIG. 24B) was increased, while the response for the mismatch (rightmost bar in each pair of bars in FIG. 24B) was decreased. […]

Sequence of KlenTaq polymerase (P19821 280-832, one chain of several): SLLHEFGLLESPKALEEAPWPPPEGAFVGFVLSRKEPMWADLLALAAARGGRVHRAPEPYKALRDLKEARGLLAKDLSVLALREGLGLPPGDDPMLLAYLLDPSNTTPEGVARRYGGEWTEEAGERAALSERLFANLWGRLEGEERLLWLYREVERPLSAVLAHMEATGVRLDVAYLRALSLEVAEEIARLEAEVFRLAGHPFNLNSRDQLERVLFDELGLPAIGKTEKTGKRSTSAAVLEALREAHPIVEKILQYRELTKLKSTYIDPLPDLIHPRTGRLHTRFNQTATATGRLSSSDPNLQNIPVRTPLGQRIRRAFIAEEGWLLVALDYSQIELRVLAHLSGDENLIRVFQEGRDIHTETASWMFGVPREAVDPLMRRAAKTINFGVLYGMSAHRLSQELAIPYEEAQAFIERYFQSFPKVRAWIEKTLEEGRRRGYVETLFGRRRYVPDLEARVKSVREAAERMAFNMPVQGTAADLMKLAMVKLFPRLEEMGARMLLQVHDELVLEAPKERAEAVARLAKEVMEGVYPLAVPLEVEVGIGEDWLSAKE

Row | Binder | binding result (KlenTaq polymerase) | binding result (BSU DNA polymerase I)
1 | CGTTAGTAACCTCGAGGCAACTTAGCCTCGAG (structured_DNA) [6-FAM hairpin-DNA template] | binds | –
2 | B1 | – | binds
